Results published in IntAct's records for PubMed 16890161.

B1: Low-density lipoprotein receptor-related protein 6 (Homo sapiens), O75581 (parent)
chain: MGAVLRSLLACSFCVLLRAAPLLLYANRRDLRLVDATNGKENATIVVGGLEDAAAVDFVFSHGLIYWSDVSEEAIKRTEFNKTESVQNVVVSGLLSPDGLACDWLGEKLYWTDSETNRIEVSNLDGSLRKVLFWQELDQPRAIALDPSSGFMYWTDWGEVPKIERAGMDGSSRFIIINSEIYWPNGLTLDYEEQKLYWADAKLNFIHKSNLDGTNRQAVVKGSLPHPFALTLFEDILYWTDWSTHSILACNKYTGEGLREIHSDIFSPMDIHAFSQQRQPNATNPCGIDNGGCSHLCLMSPVKPFYQCACPTGVKLLENGKTCKDGATELLLLARRTDLRRISLDTPDFTDIVLQLEDIRHAIAIDYDPVEGYIYWTDDEVRAIRRSFIDGSGSQFVVTAQIAHPDGIAVDWVARNLYWTDTGTDRIEVTRLNGTMRKILISEDLEEPRAIVLDPMVGYMYWTDWGEIPKIERAALDGSDRVVLVNTSLGWPNGLALDYDEGKIYWGDAKTDKIEVMNTDGTGRRVLVEDKIPHIFGFTLLGDYVYWTDWQRRSIERVHKRSAEREVIIDQLPDLMGLKATNVHRVIGSNPCAEENGGCSHLCLYRPQGLRCACPIGFELISDMKTCIVPEAFLLFSRRADIRRISLETNNNNVAIPLTGVKEASALDFDVTDNRIYWTDISLKTISRAFMNGSALEHVVEFGLDYPEGMAVDWLGKNLYWADTGTNRIEVSKLDGQHRQVLVWKDLDSPRALALDPAEGFMYWTEWGGKPKIDRAAMDGSERTTLVPNVGRANGLTIDYAKRRLYWTDLDTNLIESSNMLGLNREVIADDLPHPFGLTQYQDYIYWTDWSRRSIERANKTSGQNRTIIQGHLDYVMDILVFHSSRQSGWNECASSNGHCSHLCLAVPVGGFVCGCPAHYSLNADNRTCSAPTTFLLFSQKSAINRMVIDEQQSPDIILPIHSLRNVRAIDYDPLDKQLYWIDSRQNMIRKAQEDGSQGFTVVVSSVPSQNLEIQPYDLSIDIYSRYIYWTCEATNVINVTRLDGRSVGVVLKGEQDRPRAVVVNPEKGYMYFTNLQERSPKIERAALDGTEREVLFFSGLSKPIALALDSRLGKLFWADSDLRRIESSDLSGANRIVLEDSNILQPVGLTVFENWLYWIDKQQQMIEKIDMTGREGRTKVQARIAQLSDIHAVKELNLQEYRQHPCAQDNGGCSHICLVKGDGTTRCSCPMHLVLLQDELSCGEPPTCSPQQFTCFTGEIDCIPVAWRCDGFTECEDHSDELNCPVCSESQFQCASGQCIDGALRCNGDANCQDKSDEKNCEVLCLIDQFRCANGQCIGKHKKCDHNVDCSDKSDELDCYPTEEPAPQATNTVGSVIGVIVTIFVSGTVYFICQRMLCPRMKGDGETMTNDYVVHGPASVPLGYVPHPSSLSGSLPGMSRGKSMISSLSIMGGSSGPPYDRAHVTGASSSSSSSTKGTYFPAILNPPPSPATERSHYTMEFGYSSNSPSTHRSYSYRPYSYRHFAPPTTPCSTDVCDSDYAPSRRMTSVATAKGYTSDLNYDSEPVPPPPTPRSQYLSAEENYESCPPSPYTERSYSHHLYPPPPSPCTDSS

Variants of: B1
Conditions: with axin1_rat Axin1, O70239
axin1_rat Axin1, O70239, sequence (O70239 whole entry): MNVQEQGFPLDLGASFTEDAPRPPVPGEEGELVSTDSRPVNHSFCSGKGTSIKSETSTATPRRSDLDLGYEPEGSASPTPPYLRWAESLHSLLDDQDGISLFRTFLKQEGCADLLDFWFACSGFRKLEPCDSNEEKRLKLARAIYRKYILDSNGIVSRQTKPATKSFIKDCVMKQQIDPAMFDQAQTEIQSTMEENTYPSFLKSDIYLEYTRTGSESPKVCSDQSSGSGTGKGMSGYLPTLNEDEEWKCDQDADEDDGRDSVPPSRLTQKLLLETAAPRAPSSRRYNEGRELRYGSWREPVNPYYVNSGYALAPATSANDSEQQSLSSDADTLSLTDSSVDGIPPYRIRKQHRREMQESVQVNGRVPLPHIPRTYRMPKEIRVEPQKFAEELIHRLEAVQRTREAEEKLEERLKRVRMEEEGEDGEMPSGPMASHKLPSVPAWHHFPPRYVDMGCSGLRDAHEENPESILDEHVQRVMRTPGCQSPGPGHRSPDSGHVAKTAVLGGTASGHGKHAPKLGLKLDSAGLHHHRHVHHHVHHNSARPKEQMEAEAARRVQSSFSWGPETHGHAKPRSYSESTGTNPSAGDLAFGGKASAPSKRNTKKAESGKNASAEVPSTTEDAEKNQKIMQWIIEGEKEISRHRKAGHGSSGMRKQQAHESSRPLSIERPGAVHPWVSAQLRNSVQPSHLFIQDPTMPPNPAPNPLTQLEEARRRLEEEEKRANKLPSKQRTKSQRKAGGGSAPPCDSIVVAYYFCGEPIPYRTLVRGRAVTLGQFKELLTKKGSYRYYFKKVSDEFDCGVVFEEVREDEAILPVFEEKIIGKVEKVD

Variant | effect of a mutation on the interaction
S1490A | decreasing interaction
